From patent US20240343803A1 (SHANDONG SIMCERE BIOPHARMACEUTICAL, published 2024) come the findings set out here.

Experiment [1] concerns the target T1, cynomolgus monkey TIGIT ECD-mFc (cynomolgus monkey).
T1 construct: also called cynomolgus monkey TIGIT protein
Put plainly: ELISA, cynomolgus TIGIT ECD-mFc captured by anti-mouse IgG. On the procedure: (§1) After washing with blocking buffer, the plate was added with 50 μL/well of 30 ng/ml human TIGIT ECD-mFc (in house) or cynomolgus monkey TIGIT ECD-mFc (in house) and incubated at 37° C. for 2.0 hours. After washing the plate, the serial diluted antibodies (initial concentration 13 nM, 3-fold serial dilution, 12 concentration points) were added into the plate (50 μL/well) and incubated at 37° C. for 2.0 hours. After washing the plate, the goat anti-human IgG Fc-HRP (Merck, Cat NO. AP113P)) working solution (dilution ratio 1:5000, 50 μL/well) were added into wells and incubated at 37° C. for 1.0 hour. A HRP substrate, TMB (KPL, Cat NO. 5120-0077) was added into wells after washing the plate again for color development. After adding a termination solution to terminate the reaction, the absorbance value was read by a microplate reader (PE, Ensight-HH3400). An antibody binding curve was drawn with molar concentration of antibodies as the abscissa and the corresponding OD value as the ordinate. The EC50 value was calculated by using a Four Parameter Logistic Fit (GraphPad Prism9). […] The positive control antibodies are RG6058-hIgG1, TIGIT-002-H4L3 and TIGIT-005-H2Lld; and the negative control antibodies are anti-Fluorescein-hIgG1 (in house). The binding results of the 4 humanized bispecific antibodies to human TIGIT protein are shown in FIG. 43 and Tables 42 and 43, and the binding results to cynomolgus monkey TIGIT are shown in FIG. 44 and Tables 42 and 43.
On the technique in general: ELISA stands for enzyme-linked immunosorbent assay.

Experiment [2] has as its target T2, human TIGIT ECD-mFc (human).
T2 construct: also called human TIGIT protein; fusion protein of extracellular domain of human TIGIT and mouse IgG2a Fc fragment
T2 chain: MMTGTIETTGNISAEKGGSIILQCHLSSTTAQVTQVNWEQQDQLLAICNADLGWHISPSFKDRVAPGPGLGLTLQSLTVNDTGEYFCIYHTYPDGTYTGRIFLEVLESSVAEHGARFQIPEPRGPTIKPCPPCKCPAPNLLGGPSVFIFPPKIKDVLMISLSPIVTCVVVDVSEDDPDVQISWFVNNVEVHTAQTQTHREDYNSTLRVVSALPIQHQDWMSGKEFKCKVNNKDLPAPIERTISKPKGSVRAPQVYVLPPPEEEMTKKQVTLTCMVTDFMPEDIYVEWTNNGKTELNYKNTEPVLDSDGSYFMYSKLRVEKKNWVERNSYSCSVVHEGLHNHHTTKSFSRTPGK
The experiment can be described thus: ELISA, human TIGIT ECD-mFc captured by anti-mouse IgG. As for the experimental part: as §1

Experiment [3] concerns the target T1, cynomolgus monkey TIGIT ECD-mFc. Put plainly: ELISA, cynomolgus TIGIT ECD-mFc captured by anti-mouse IgG. On the procedure:
as §1
This is another data set of the same source.

For experiment [4], the target named is T2, human TIGIT ECD-mFc. Put plainly: ELISA, human TIGIT ECD-mFc captured by anti-mouse IgG. As for the experimental part: as §1
The target in experiment [5] is T3, Full-length human TIGIT on CHO-K1 cells (CHO-K1 human TIGIT) (human, UniProt Q495A1 22-244).
T3 construct: NCBI XP_024309156.1; the entry includes the signal peptide (limits not recoverable); The strain (high, medium, low) is named under assay; also called high expression strain 1D2; medium expression strain 2D10
T3 sequence: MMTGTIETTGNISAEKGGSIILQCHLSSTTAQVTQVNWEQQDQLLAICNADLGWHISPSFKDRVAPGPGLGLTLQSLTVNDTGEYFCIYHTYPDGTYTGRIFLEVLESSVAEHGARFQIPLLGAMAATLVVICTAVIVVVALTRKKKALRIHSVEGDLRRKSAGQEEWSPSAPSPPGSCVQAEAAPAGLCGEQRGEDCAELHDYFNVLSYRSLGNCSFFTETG
The experiment can be described thus: cell binding, CHO-K1 human TIGIT high expression strain. An outline of the steps: (§2)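 Binding was measured by flow cytometry after a 60-minute, 4° C incubation of the antibodies with 2×10⁵ CHO-K1 cells displaying full-length human or cynomolgus monkey TIGIT. Antibody titration: 12 points, threefold serial dilution from 80 nM, in 1% BSA-PBS.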

Experiment [6] has as its target T4, Fusion protein of extracellular domain of human TIGIT and mouse IgG2a Fc fragment (human TIGIT ECD-mFc) (human).
T4 construct: The entry includes the signal peptide (limits not recoverable) and the mouse IgG2a Fc
T4 chain: T2 chain
The experiment can be described thus: ELISA, human TIGIT ECD-mFc. An outline of the steps:
(§3)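 Antibodies diluted to 13 nM in 1% BSA, then 3-fold serial dilution for 12 concentrations, incubated with milk-blocked plates at 37° C for 1.5-2 h. Bound antibody detected with HRP-labelled secondary antibody (1:5000, 37° C, 1 h) and TMB, stopped with 1M HCl; OD450 nm read.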

Experiment [7] addresses T5, Fusion protein of extracellular domain of cynomolgus monkey TIGIT and mouse IgG2a Fc fragment (cynomolgus … (cynomolgus monkey)).
T5 construct: The entry includes the signal peptide (limits not recoverable) and the mouse IgG2a Fc
The experiment can be described thus: ELISA, cynomolgus monkey TIGIT ECD-mFc. An outline of the steps:
as §3

For experiment [8], the target named is T6, Full-length cynomolgus monkey TIGIT on CHO-K1 cells (CHO-K1 cynomolgus monkey TIGIT) (cynomolgus monkey).
T6 construct: NCBI XP_015300911.1
T6 sequence (chain, as listed by the source limits assumed): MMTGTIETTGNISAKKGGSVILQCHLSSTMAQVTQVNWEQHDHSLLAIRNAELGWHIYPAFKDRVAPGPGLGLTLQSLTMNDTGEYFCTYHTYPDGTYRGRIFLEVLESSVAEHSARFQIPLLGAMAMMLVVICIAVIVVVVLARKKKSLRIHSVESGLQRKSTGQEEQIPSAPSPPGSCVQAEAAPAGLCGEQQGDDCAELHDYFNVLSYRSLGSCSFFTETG
The experiment can be described thus: cell binding, CHO-K1 cynomolgus monkey TIGIT. Summed up: as §2

In experiment [9] the target is T7, Fusion protein of extracellular domain of human TIGIT and human IgG1 Fc fragment (human TIGIT ECD-hFc) (human).
T7 construct: The entry includes the signal peptide (limits not recoverable) and the human IgG1 Fc
T7 sequence (chain, as listed by the source limits assumed): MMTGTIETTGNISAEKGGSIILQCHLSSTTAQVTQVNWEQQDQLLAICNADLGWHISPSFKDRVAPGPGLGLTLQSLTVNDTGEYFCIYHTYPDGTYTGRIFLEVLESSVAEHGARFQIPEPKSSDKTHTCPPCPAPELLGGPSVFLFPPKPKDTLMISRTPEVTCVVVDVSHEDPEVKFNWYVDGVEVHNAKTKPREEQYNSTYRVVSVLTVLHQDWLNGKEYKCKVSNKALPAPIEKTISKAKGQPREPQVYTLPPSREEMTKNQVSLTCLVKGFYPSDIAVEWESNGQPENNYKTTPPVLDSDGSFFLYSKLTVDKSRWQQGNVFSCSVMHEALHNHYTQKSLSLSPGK
The experiment can be described thus: blocking of TIGIT ECD-hFc binding to CHO-K1 CD155 cells. Summed up:
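Inhibition was expressed as IC50 values derived from the inhibition curves of a cell-based ELISA. CHO-K1 CD155 cells were cultured overnight, fixed, and blocked with 5% skim milk-PBS. Antibodies were first premixed for 0.5 h with human TIGIT ECD-hFc at a working concentration of 30 ng/mL, and the mixture was then added to the cells for 1.5-2 h at 37° C. Bound TIGIT was detected with HRP secondary antibody (1:5000, 37° C, 1 h) and TMB, and read as OD450 nm.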

Experiment [10] deals with T8, Fusion protein of extracellular domain of human TIGIT and His-tag (human TIGIT ECD-his) (human).
T8 chain: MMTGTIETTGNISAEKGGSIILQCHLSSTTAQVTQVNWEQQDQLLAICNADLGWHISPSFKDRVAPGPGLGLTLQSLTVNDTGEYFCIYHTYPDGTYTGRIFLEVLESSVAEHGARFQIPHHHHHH
The experiment can be described thus: BIAcore; KD ratio to TIGIT-CHI-070. Background: In SPR one partner is held on a chip, and binding of the other changes the refractive index at the surface.

The target of experiment [11] is T8, Fusion protein of extracellular domain …. Put plainly: BIAcore.

As a reminder, the EC50 is the midpoint of the concentration-response curve. As usually defined, the IC50 is the concentration that inhibits the measured activity by half. As usually defined, the Kd is the constant that tells how readily two partners part at equilibrium. By koff is commonly meant the first-order rate constant of dissociation. Broadly, the kon is a measure of how fast the partners come together.

Changes are numbered by the printed parent chain. Where two headings read alike, the source gives them in different places.

T5 sequence (chain, as listed by the source limits assumed): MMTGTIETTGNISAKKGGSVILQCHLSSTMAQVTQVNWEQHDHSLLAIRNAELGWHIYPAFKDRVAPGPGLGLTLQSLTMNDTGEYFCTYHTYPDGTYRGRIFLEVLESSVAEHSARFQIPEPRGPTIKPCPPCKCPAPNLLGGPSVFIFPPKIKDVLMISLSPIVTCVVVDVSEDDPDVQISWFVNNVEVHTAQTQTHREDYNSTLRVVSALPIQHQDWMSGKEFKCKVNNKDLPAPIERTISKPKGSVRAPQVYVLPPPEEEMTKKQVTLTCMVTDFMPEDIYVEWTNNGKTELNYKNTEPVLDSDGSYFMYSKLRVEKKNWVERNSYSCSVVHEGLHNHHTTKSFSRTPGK

B1: TIGIT-002-H4L3 (antibody, V domains shown)
VH: EVQLQESGPGLVKPSETLSLTCAVSGYSITSDSWNWIRQPPGKKLEYIGYISYSGNTYYNPSLKSRVTISRDTSKNQFSLKLSSVTAADTAVYYCARLDFSNYGGAVDYWGQGTTVTVSS
VL: DIVMTQSPDSLAVSLGERATINCKASQNVRTAVAWYQQKPGQSPKLMIYSASYRYTGVPDRFSGSGSGTDFTLTISSLQAEDVAVYYCQQYYTTPWTFGGGTKVEIK
Regarding B1, in experiment [1], the “% relative activity RG6058-hIgG1/tested antibody” value turned out to be 111%, the “% relative activity TIGIT-002-H4L3/tested antibody” value is 100% and a half-maximal effect (EC50) was put at 0.0415 nM. Also, in experiment [2], the “% relative activity RG6058-hIgG1/tested antibody” value came out at 135%, the “% relative activity TIGIT-002-H4L3/tested antibody” value amounted to 100% and a half-maximal response (EC50) required 0.0374 nM.

B2: TIGIT-005-H2L1d (antibody, V domains shown)
VH: EVQLVQSGAEVKKPGASVKVSCKASGYAFTNYLIEWVRQAPGQRLEWMGVINPGSGGTNYKEKFKGRVTITADKSSSTAYMELSSLRSEDTAVYYCARGEYFFFDYWGQGTTVTVSS
VL: B1 VL with N28H, R30S, T31N, Q38H, M47L, Y91H, T93N, W96H
Regarding B2, in [3], the “% relative activity RG6058-hIgG1/tested antibody” value is 103%, the “% relative activity TIGIT-005-H2L1d/tested antibody” value worked out at 100% and a half-maximal response (EC50) required 0.0446 nM. For the same molecule, in experiment [4], the “% relative activity RG6058-hIgG1/tested antibody” value came out at 117%, the “% relative activity TIGIT-005-H2L1d/tested antibody” value was 100% and the response was half-maximal at 0.0429 nM (EC50).

B3: TIGIT-070-H2L2 (antibody, V domains shown)
VH: EVQLVQSGAEVKKPGASVKVSCKASGYTFTNYYMHWVRQAPGQRLEWMGRIDPDSGGSKYNEKFKSRVTITVDKLSSTAYMELSSLRSEDTAVYYCAREGHYGFYSDYWGQGTTVTVSS
VL: DIQMTQSPSSLSASVGDRVTITCRVSENIYSYLAWYQQKPGKSPKLLVYNAKTLAEGVPSRFSGSGSGTDFTLTISSLQPEDFATYYCQHHYGNPLTFGPGTKVDIK
notes: Humanized anti-TIGIT antibody
With B3, the EC50 in experiment [5] was 0.0312 nM; in experiment [6], 0.0125 nM; in experiment [7] it was 0.0112 nM; in [8], 0.0662 nM. This molecule also returned an IC50 in [9] of 0.448 nM. Also, the “Fold change vs chimeric antibodies (KD)” value in experiment [10] came out at 0.87 fold. In experiment [11], this molecule registered a Kd of 0.0851 nM. The same molecule gave a koff in experiment [11] of 0.000142 s⁻¹. The molecule also gave an on-rate (kon) in experiment [11] of 1.67e+06 M⁻¹ s⁻¹.

B4: TIGIT-070-H2L3 (antibody, V domains shown)
VH: B3 VH
VL: DIVMTQSPDSLAVSLGERATINCRVSENIYSYLAWYQQKPGQSPKLLVYNAKTLAEGVPDRFSGSGSGTDFTLTISSLQAEDVAVYYCQHHYGNPLTFGPGTKVDIK
notes: Humanized anti-TIGIT antibody
Consider B4, for which the EC50 in [5] was 0.0209 nM; in [6], 0.0119 nM; in experiment [7], 0.0119 nM; in experiment [8], 0.0774 nM. The molecule further displayed an IC50 in experiment [9] of 0.35 nM. In [10], the “Fold change vs chimeric antibodies (KD)” value came out at 0.77 fold. This molecule displayed a dissociation constant (Kd) in [11] of 0.0756 nM. Moreover, the koff in experiment [11] was determined as 0.000134 s⁻¹. This molecule registered a kon in experiment [11] of 1.77e+06 M⁻¹ s⁻¹.

B5: TIGIT-070-H3L3 (antibody, V domains shown)
VH: B3 VH with R44G
VL: B4 VL
notes: Humanized anti-TIGIT antibody
On to B5, for which the EC50 worked out at 0.03 nM in experiment [5], 0.0151 nM in experiment [6], 0.0142 nM in experiment [7] and 0.0556 nM in experiment [8]. Moreover, in experiment [9], the IC50 is 0.417 nM. Further, in experiment [10], the “Fold change vs chimeric antibodies (KD)” value worked out at 1.17 fold. Moreover, the affinity in experiment [11], expressed as Kd, was 0.115 nM. In addition, the koff in experiment [11] was 0.000151 s⁻¹. This molecule displayed a kon in [11] of 1.31e+06 M⁻¹ s⁻¹.

B6: TIGIT-070-H3L1 (antibody, V domains shown)
VH: B3 VH with R44G
VL: B3 VL with V48I
notes: Humanized anti-TIGIT antibody
On to B6, for which the EC50 in [5] was found to be 0.0132 nM; in [6], 0.0131 nM; in [7], 0.0139 nM; in [8], 0.0741 nM. This molecule also returned an IC50 in experiment [9] of 0.463 nM. In addition, in experiment [10], the “Fold change vs chimeric antibodies (KD)” value was 1.23 fold. The molecule also returned a Kd in [11] of 0.121 nM. The same molecule registered a koff in [11] of 0.000152 s⁻¹. For the same molecule, the kon in [11] stood at 1.26e+06 M⁻¹ s⁻¹.

B7: TIGIT-070-H1L3 (antibody, V domains shown)
VH: B3 VH with L75S, S76A
VL: B4 VL
notes: Humanized anti-TIGIT antibody
As to B7, the EC50 came out at 0.024 nM in experiment [5], 0.0148 nM in experiment [6], 0.0137 nM in experiment [7] and 0.112 nM in experiment [8]. Besides, the IC50 in [9] came to 0.445 nM. In addition, in [10], the “Fold change vs chimeric antibodies (KD)” value was determined as 0.74 fold. Besides, binding in [11] was put at a Kd of 0.0724 nM. Besides, the koff in experiment [11] worked out at 0.000129 s⁻¹. Moreover, the kon in experiment [11] came out at 1.78e+06 M⁻¹ s⁻¹.

B8: TIGIT-070-H3L2 (antibody, V domains shown)
VH: B3 VH with R44G
VL: B3 VL
notes: Humanized anti-TIGIT antibody
For the molecule B8, the EC50 in [5] is 0.0276 nM; in experiment [6], 0.0143 nM; in experiment [7], 0.0157 nM; in experiment [8], 0.0665 nM. In experiment [9], this molecule gave an IC50 of 0.423 nM. The “Fold change vs chimeric antibodies (KD)” value in experiment [10] is 1.32 fold. The same molecule had a Kd in [11] of 0.129 nM. This molecule showed a koff in experiment [11] of 0.000168 s⁻¹. Moreover, the on-rate constant (kon) in experiment [11] stood at 1.3e+06 M⁻¹ s⁻¹.
